The text below walks through data of publication PMC6627055, “Enantioselective Hydrolysis of Styrene Oxide and Benzyl Glycidyl Ether by a Variant of Epoxide Hydrolase from Agromyces mediolanus” (Marine Drugs, 2019).

Common to all, as to experiment: initial rate of epoxide hydrolysis, chiral HPLC
Common to all, as to format: biochemical, Agromyces mediolanus
Holding throughout (conditions): phosphate buffer 0.2 M, pH 8.0, 30 °C (general activity assay), enantiopure substrate

The subject of one data set is T1, c1ccc([C@@H]2CO2)cc1.
T1 construct: synthetic gene, triple variant, C-terminal His6 (3' end of gene) in pET28a NcoI/XhoI, E. coli BL21(DE3), Ni-NTA purified, about 43 kDa
The text has this: (§1) initial rate of epoxide hydrolysis, chiral HPLC on vEH-Am

In a further data set the test system is T2, c1ccc([C@H]2CO2)cc1.
T2 construct: synthetic gene, triple variant, C-terminal His6 (3' end of gene) in pET28a NcoI/XhoI, E. coli BL21(DE3), Ni-NTA purified, about 43 kDa
Excerpt: as §1

The next data set has as its system T3, c1ccc(COC[C@H]2CO2)cc1.
T3 construct: synthetic gene, triple variant, C-terminal His6 (3' end of gene) in pET28a NcoI/XhoI, E. coli BL21(DE3), Ni-NTA purified, about 43 kDa
Excerpt: as §1

The subject of another data set is T4, c1ccc(COC[C@@H]2CO2)cc1.
T4 construct: synthetic gene, triple variant, C-terminal His6 (3' end of gene) in pET28a NcoI/XhoI, E. coli BL21(DE3), Ni-NTA purified, about 43 kDa
Excerpt: as §1

As to “vEH-Am (Agromyces mediolanus; N240D/S207V/W182F)”, the Km with c1ccc([C@@H]2CO2)cc1 is on record as 5.2 mM; in the data set on c1ccc([C@H]2CO2)cc1 it was 0.9 mM; in the data set with c1ccc(COC[C@H]2CO2)cc1, 9.3 mM; with c1ccc(COC[C@@H]2CO2)cc1 it was 36.5 mM.

One may read the Km as the concentration of substrate that gives half-maximal velocity.
